We go through 3 proteins from US20180161335.

Series [1] concerns the target T1, RAB11A, N-terminal 6x His-tag, purified from E. coli, preloaded with BODIPY FL GDP, P62491.
T1 chain: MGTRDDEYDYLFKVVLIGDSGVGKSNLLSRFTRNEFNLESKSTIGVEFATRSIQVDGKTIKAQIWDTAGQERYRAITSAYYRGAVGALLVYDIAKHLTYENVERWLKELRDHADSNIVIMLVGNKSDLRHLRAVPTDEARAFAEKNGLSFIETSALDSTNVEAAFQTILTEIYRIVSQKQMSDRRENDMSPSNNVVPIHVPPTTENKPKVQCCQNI

In series [2] the target is ARF3, purified from E. coli, preloaded with BODIPY FL GDP, P61204.
Series [3] has as its target the other GTPases tested.
The target of series [4] is T2, RAB5A, N-terminal 6x His-tag, purified from E. coli, preloaded with BODIPY FL GDP, P20339.
T2 chain: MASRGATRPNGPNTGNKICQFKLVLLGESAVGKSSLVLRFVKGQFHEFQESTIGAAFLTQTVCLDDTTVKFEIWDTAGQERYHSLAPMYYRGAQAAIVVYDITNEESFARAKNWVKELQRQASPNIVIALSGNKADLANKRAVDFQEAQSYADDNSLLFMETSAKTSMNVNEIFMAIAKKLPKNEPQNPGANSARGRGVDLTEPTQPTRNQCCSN

Chain of ARF3, purified from E. coli, preloaded with BODIPY FL GDP, P61204 (P61204 whole entry): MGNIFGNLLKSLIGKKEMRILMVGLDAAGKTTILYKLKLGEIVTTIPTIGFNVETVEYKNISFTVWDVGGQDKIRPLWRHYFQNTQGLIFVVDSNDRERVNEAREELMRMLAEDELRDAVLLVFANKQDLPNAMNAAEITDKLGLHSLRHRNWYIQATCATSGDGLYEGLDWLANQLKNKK

B1: RABEX5, 2x HA-tagged, in HEK cell lysate (protein)
chain: MSLKSERRGIHVDQSDLLCKKGCGYYGNPAWQGFCSKCWREEYHKARQKQIQEDWELAERLQREEEEAFASSQSSQGAQSLTFSKFEEKKTNEKTRKVTTVKKFFSASSRVGSKKEIQEAKAPSPSINRQTSIETDRVSKEFIEFLKTFHKTGQEIYKQTKLFLEGMHYKRDLSIEEQSECAQDFYHNVAERMQTRGKVPPERVEKIMDQIEKYIMTRLYKYVFCPETTDDEKKDLAIQKRIRALRWVTPQMLCVPVNEDIPEVSDMVVKAITDIIEMDSKRVPRDKLACITKCSKHIFNAIKITKNEPASADDFLPTLIYIVLKGNPPRLQSNIQYITRFCNPSRLMTGEDGYYFTNLCCAVAFIEKLDAQSLNLSQEDFDRYMSGQTSPRKQEAESWSPDACLGVKQMYKNLDLLSQLNERQERIMNEAKKLEKDLIDWTDGIAREVQDIVEKYPLEIKPPNQPLAAIDSENVENDKLPPPLQPQVYAG
Turning to B1, in series [1], the “guanine exchange activity (BODIPY-GDP fluorescence)” value (“guanine exchange activity” below) is “neither RABEX-5, DENN2D, or DsRed displayed activity on RAB11A”.

B2: C9ORF72 isoform B, 2x HA-tagged, in HEK cell lysate (protein)
chain: MSTLCPPPSPAVAKTEIALSGKSPLLAATFAYWDNILGPRVRHIWAPKTEQVLLSDGEITFLANHTLNGEILRNAESGAIDVKFFVLSEKGVIIVSLIFDGNWNGDRSTYGLSIILPQTELSFYLPLHRVCVDRLTHIIRKGRIWMHKERQENVQKIILEGTERMEDQGQSIIPMLTGEVIPVMELLSSMKSHSVPEEIDIADTVLNDDDIGDSCHEGFLLK
Regarding B2, the “guanine exchange activity” value in series [2] was “C9ORF72 isoforms A and B stimulated guanine exchange on ARF3”; in series [3] it was “Significant activity was not observed using both C9ORF72 isoforms on the other GTPases tested”.

B3: DENND2D, 2x HA-tagged, in HEK cell lysate (protein)
chain: MEGQVVGRVFRLFQRRLLQLRAGPPQDNSGEALKEPERAQEHSLPNFAGGQHFFEYLLVVSLKKKRSEDDYEPIITYQFPKRENLLRGQQEEEERLLKAIPLFCFPDGNEWASLTEYPRETFSFVLTNVDGSRKIGYCRRLLPAGPGPRLPKVYCIISCIGCFGLFSKILDEVEKRHQISMAVIYPFMQGLREAAFPAPGKTVTLKSFIPDSGTEFISLTRPLDSHLEHVDFSSLLHCLSFEQILQIFASAVLERKIIFLAEGLSTLSQCIHAAAALLYPFSWAHTYIPVVPESLLATVCCPTPFMVGVQMRFQQEVMDSPMEEVLLVNLCEGTFLMSVGDEKDILPPKLQDDILDSLGQGINELKTAEQINEHVSGPFVQFFVKIVGHYASYIKREANGQGHFQERSFCKALTSKTNRRFVKKFVKTQLFSLFIQEAEKSKNPPAGYFQQKILEYEEQKKQKKPREKTVK
Consider B3, for which the “guanine exchange activity” value is given as “neither RABEX-5, DENN2D, or DsRed displayed activity on RAB11A” in series [1] and “did not display guanine exchange activity on RAB5A” in series [4].
